Laboratory results taken from patent US20260061032A1 (GI INNOVATION, published 2026).

T1: IL-2Rβγ on HEK-BLUE IL-2 reporter cells (UniProt P14784 27-551; P31785 23-369)
T1 sequence (looked up) 1: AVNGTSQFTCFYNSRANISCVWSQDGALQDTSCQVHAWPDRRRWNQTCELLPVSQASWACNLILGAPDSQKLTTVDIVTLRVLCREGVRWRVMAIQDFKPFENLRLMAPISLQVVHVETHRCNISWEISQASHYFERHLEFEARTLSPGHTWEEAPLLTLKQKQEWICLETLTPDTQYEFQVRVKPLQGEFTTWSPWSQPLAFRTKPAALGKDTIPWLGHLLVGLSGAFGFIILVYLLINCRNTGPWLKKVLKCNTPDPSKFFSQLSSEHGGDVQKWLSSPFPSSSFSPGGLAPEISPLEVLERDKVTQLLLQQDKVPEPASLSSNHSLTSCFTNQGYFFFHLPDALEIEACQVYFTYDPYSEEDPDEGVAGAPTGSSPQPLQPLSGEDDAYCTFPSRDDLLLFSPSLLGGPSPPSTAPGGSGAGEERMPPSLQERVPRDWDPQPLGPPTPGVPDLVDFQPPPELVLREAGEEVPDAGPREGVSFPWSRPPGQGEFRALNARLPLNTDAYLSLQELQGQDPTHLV
T1 sequence (looked up) 2: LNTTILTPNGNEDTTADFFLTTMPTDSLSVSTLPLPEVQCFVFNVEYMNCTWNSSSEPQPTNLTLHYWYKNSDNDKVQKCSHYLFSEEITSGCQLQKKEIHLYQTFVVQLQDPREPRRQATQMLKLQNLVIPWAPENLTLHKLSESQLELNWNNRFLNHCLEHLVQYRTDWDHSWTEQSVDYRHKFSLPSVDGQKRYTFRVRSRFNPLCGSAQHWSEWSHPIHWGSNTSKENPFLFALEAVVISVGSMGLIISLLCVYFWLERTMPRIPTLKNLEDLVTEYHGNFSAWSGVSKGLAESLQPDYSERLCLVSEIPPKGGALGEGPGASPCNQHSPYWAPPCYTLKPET

T2: hIL-2Rαβγ on CTLL-2 cells (human, UniProt P01589 22-272; P14784 27-551; P31785 23-369)
T2 sequence (looked up) 1: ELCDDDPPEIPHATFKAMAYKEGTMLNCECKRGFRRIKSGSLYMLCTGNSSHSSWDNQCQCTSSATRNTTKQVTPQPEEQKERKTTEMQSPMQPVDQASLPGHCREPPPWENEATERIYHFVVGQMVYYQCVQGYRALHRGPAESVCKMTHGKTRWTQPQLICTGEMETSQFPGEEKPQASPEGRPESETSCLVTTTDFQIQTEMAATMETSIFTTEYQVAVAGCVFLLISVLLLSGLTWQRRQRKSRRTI
T2 sequence (looked up) 2: T1 sequence (looked up) 1
T2 sequence (looked up) 3: T1 sequence (looked up) 2

T3: hIL-2Rα (human, UniProt P01589 22-213)
T3 construct: also called hIL-2Ra; IL-2 receptor alpha chain
T3 sequence (looked up): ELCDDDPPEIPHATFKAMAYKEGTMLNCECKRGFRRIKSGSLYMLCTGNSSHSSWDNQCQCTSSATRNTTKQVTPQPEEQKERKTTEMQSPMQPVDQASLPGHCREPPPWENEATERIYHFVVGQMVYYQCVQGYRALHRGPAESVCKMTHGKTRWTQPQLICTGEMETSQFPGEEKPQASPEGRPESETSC

T4: hIL-2Rβγ (human, UniProt P14784 27-239; P31785 23-254)
T4 construct: Soluble beta/gamma heterodimer used as SPR analyte
T4 sequence (looked up) 1: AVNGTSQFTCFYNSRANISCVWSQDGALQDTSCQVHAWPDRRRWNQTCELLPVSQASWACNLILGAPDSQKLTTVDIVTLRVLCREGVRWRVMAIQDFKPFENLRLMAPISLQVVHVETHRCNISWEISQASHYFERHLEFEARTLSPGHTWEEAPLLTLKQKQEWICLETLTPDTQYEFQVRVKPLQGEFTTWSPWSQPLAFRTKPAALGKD
T4 sequence (looked up) 2: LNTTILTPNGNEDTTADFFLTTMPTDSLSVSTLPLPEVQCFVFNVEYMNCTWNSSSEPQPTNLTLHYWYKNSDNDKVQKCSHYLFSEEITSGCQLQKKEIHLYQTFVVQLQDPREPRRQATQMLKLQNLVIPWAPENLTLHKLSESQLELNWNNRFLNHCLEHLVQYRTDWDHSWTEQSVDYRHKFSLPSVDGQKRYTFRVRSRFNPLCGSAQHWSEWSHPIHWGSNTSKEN

B1: GI-108B1 (Anti-CD73 Ab-hIgG4 Fc-hIL2v3 fusion protein dimer) (antibody)
heavy: QVQLVQSGAEVKKPGSSVKVSCKFSGGSFTSYSFSWVRQAPGQGLEWMGRIIPVLTTTDYAQKFRDRVTITADESTSTAYMELSGLRSEDTAVYYCASGLKKNWYFDLWGRGALITVSSASTKGPSVFPLAPCSRSTSESTAALGCLVKDYFPEPVTVSWNSGALTSGVHTFPAVLQSSGLYSLSSVVTVPSSSLGTKTYTCNVDHKPSNTKVDKRVESKYGPPCPPCPAPEAAGGPSVFLFPPKPKDQLMISRTPEVTCVVVDVSQEDPEVQFNWYVDGVEVHNAKTKPREEQFNSTYRVVSVLTVLHQDWLNGKEYKCKVSNKGLPSSIEKTISKAKGQPREPQVYTLPPSQEEMTKNQVSLTCLVKGFYPSDIAVEWESNGQPENNYKTTPPVLDSDGSFFLYSRLTVDKSRWQEGNVFSCSVLHEALHNHYTQKSLSLSLGGGGGSGGGGSAPTSSSTKKTQLQLEHLLLDLQMILNGINNYKNPKLTAMLTAKFYMPKKATELKHLQCLERELKPLEEVLNLAQSKNFHLRPRDLISNINVIVLELKGSETTFMCEYADETATIVEFLNRWITFCQSIISTLT
light: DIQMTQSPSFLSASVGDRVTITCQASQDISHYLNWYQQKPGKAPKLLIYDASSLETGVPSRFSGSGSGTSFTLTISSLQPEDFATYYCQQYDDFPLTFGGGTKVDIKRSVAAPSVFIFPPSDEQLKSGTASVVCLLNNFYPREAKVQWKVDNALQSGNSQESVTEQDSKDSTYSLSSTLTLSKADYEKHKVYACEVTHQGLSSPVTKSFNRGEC
notes: IgG4 anti-CD73 antibody with the IL-2 variant fused to the C-terminus of each heavy chain; expressed in CHO cells, purified as a dimer
B2: GI-108A1 (AHP04167) (Anti-CD73 sdAb-hIgG4 Fc-hIL2v3 fusion protein dimer) (Fc fusion)
chain: EVQLVESGGGLVQAGGSLRLSCVVSGRTFSNYHMGWFRQAPGKEREFVAVIGRSGGPTYYADSVKGRFTISRDNAKNTVYLQMNSLKPEDTAVYYCAGDWRNSDSPSKLKPVYDYWGQGTQVTVSSGGGGSAESKYGPPCPPCPAPEAAGGPSVFLFPPKPKDQLMISRTPEVTCVVVDVSQEDPEVQFNWYVDGVEVHNAKTKPREEQFNSTYRVVSVLTVLHQDWLNGKEYKCKVSNKGLPSSIEKTISKAKGQPREPQVYTLPPSQEEMTKNQVSLTCLVKGFYPSDIAVEWESNGQPENNYKTTPPVLDSDGSFFLYSRLTVDKSRWQEGNVFSCSVLHEALHNHYTQKSLSLSLGGGGGSGGGGSGGGGSAPTSSSTKKTQLQLEHLLLDLQMILNGINNYKNPKLTAMLTAKFYMPKKATELKHLQCLERELKPLEEVLNLAQSKNFHLRPRDLISNINVIVLELKGSETTFMCEYADETATIVEFLNRWITFCQSIISTLT
notes: Homodimer through hinge cysteines
B3: GI-108A1 (AHF10240) (Anti-CD73 sdAb-hIgG4 Fc-hIL2v3 fusion protein dimer) (Fc fusion)
chain: EVQLVESGGGVVQTGGSLRLSCAASGRTFTHLAMGWFRQAPGKEREFVAAISNSGAGTQFADSVKGRFTISRDNAKNTVYLQMNSLKPEDTAVYYCAADWGTRDSPSKLNAVYDYWGRGTQVTVSSGGGGSAESKYGPPCPPCPAPEAAGGPSVFLFPPKPKDQLMISRTPEVTCVVVDVSQEDPEVQFNWYVDGVEVHNAKTKPREEQFNSTYRVVSVLTVLHQDWLNGKEYKCKVSNKGLPSSIEKTISKAKGQPREPQVYTLPPSQEEMTKNQVSLTCLVKGFYPSDIAVEWESNGQPENNYKTTPPVLDSDGSFFLYSRLTVDKSRWQEGNVFSCSVLHEALHNHYTQKSLSLSLGGGGGSGGGGSGGGGSAPTSSSTKKTQLQLEHLLLDLQMILNGINNYKNPKLTAMLTAKFYMPKKATELKHLQCLERELKPLEEVLNLAQSKNFHLRPRDLISNINVIVLELKGSETTFMCEYADETATIVEFLNRWITFCQSIISTLT
notes: as for B2

Biological target: T1, IL-2Rβγ on HEK-BLUE IL-2 reporter cells
Assay: cell-based or functional assay

Question: How did the “EC50, SEAP reporter (JAK-STAT pathway activation) in HEK-BLUE IL-2 reporter cells” value (shortened to “EC50, SEAP reporter”) turn out when B1 was run?
Answer: The value was 0.00128 nM.

Question: For B2, which “EC50, SEAP reporter” value is on record?
Answer: The value was 0.00394 nM.

Question: With B3 as the binder, how does the “EC50, SEAP reporter” value read?
Answer: The value was 0.00263 nM.

Biological target: T2, hIL-2Rαβγ on CTLL-2 cells
Assay: cell-based or functional assay

Question: Which “EC50, CTLL-2 cell proliferation (WST-1 absorbance)” value does the source give for B1 here?
Answer: The value was 1.7 nM.

Question: What about the “EC50 of CTLL-2 cell proliferation, relative to PROLEUKIN” value of the same binder?
Answer: The value was 20 fold.

Question: Which results are given for B2?
Answer: EC50, CTLL-2 cell proliferation (WST-1 absorbance): 3.93 nM; EC50 of CTLL-2 cell proliferation, relative to PROLEUKIN: 20 fold

Question: Which results are given for B3?
Answer: EC50, CTLL-2 cell proliferation (WST-1 absorbance): 2.02 nM; EC50 of CTLL-2 cell proliferation, relative to PROLEUKIN: 20 fold

Biological target: T3, hIL-2Rα
Assay: SPR, Biacore T200; hIL-2Rα on CM5 chip through His capture kit, binder as analyte
Protocol: (§1) To quantitatively analyze the binding affinities to CD73 and IL-2 receptors of […] and GI-108B1, in which the anti-CD73 antibody that specifically binds to CD73 was linked to the IL-2 variant, and Aldesleukin (trade name: PROLEUKIN®, Novartis), the binding affinities were measured using SPR (surface plasmon resonance). Using a BIACORE™ T200 instrument (Cytiva), the binding affinities of GI-108A1 (AHF10240), GI-108A1 (AHP04167) and GI-108B1 to hCD73, cyCD73, mCD73, hIL-2Rα, hIL-2Rβ, and hIL-2Rβγ were analyzed. Oleclumab (Astrazeneca), produced on order from Ybiologics, Inc., was used as a control.
(§2) To analyze the binding affinity to hIL-2Ra, hIL-2Ra was […] immobilized on Sensor Chip CM5 using a His capture kit (Cytiva, USA). Each of GI-108A1 (AHF10240), GI-108A1 (AHP04167), GI-108B1 and PROLEUKIN®, diluted in HBS-EP+ buffer, was then applied for 1 minute, followed by analysis of association and dissociation. In addition, the binding affinities to hIL-2RB and hIL-2Rβγ were measured by a three-step analysis method including treating Sensor Chip SA (Cytiva, USA) with biotinylated CD73, and then binding each of GI-108A1 (AHF10240), GI-108A1 (AHP04167), GI-108B1 and PROLEUKIN® to CD73, followed by treatment with each of hIL-2RB and hIL-2Rβγ diluted in HBS-P+ buffer (Cytiva, USA). For hIL-2RB, association was performed for 1 minute and dissociation for 1 minute, and for hIL-2Rβγ, association was performed for 5 minutes and dissociation for 2 hours at each concentration, in a single cycle kinetics analysis. Each sensorgram was normalized and subtracted compared to a blank cell to calculate affinity.

Question: Does B1 bind?
Answer: Result: no binding

Question: Does B2 bind?
Answer: Result: no binding

Question: Does B3 bind?
Answer: Result: no binding

Biological target: T4, hIL-2Rβγ
Assay: SPR, Biacore T200; biotinylated CD73 on SA chip, binder bound to CD73, hIL-2Rβγ as analyte, single cycle kinetics
Protocol: as §1, §2

Question: How did the Kd turn out when B1 was run?
Answer: The Kd was 0.2 nM.

Question: B2 was tested. Which Kd did it give?
Answer: Its Kd is 0.327 nM.

Question: B3 was tested. Which Kd did it give?
Answer: Its Kd is 0.417 nM.
